Publication PMC12612047 (Nature Communications, 2025)

Tested on: CNA/B
Test: Affinity of CLMB T44E for CNA/B
Assay type: binding
Settings: glutamate for threonine at position 44; data not shown

B1: CLMB^T44E (protein)
chain: MGLKMSCLKGFQMCVSSSSSSHDEAPVLNDKHLDVPDIIITPPEPTGMMLPRDLGSTVWLDETGSCPDDGEIDPEA
affinity for CNA/B relative to CLMB: failed to show increased affinity
